Test results reported in US20170218064A1 (Stanford University, published 2017).

T1: human neuromedin U (NMU), bioactive processed 25 amino acid form (human, C-terminal amidation (-NH2))
T1 construct: In the serum ELISAs the target is endogenous circulating human NMU; also called human NMU; NMU-25
T1 peptide: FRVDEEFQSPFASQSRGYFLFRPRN

B1: anti-NMU monoclonal antibody C578 (antibody, V domains shown)
VH: EVQLQQSGAELVRSGASVKLSCAASGFNIKDYYIHWVKQRPEQGLEWIGWIDPENGDNECAPKFQGKATMTADTSSNTAYLQLTSLTSEDTAVYYCNAGKGDYWGQGTTLTVSS
VL: NIVMTQSPSSLAMSIGQKVTMSCRSSQSLLNSSNQKNYLAWYQQKPGQSPKLLVYFASTRESGVPARFIGSGSGTDFTLTISSVQAEDLADYFCQQHYSTPFTFGSGTKLEIK
notes: Monoclonal antibody from a mouse hybridoma
B2: anti-NMU monoclonal antibody 2A16 (antibody, V domains shown)
VH: QIQLVQSGPELKKPGETVKISCKASGYTFTKHGMNWMKQAPGKGLKWMGWINTNTGEPTYSEEFKGRFAFSLETSASTAYLQINNLKNEDTATYFCARTGRYGVDYWGKGTSVTVSS
VL: DIQMTQSPSSLSASLGERVSLTCRASQDIGSNLNWIQQEPDGTIKRLIYATSTLDSGVPKRFSGSRSGSDYFLTISSLESEDFVDYYCLQFDSSPLTFGAGTKLELK
notes: as for B1

Molecular target: T1, human neuromedin U (NMU), bioactive …
Test: not described

Row | Binder | binding result
1 | B1 | binds
2 | B2 | binds
